For test [1], the target named is extended PPP1R15A^325-636, wild type (bacterially expressed) (human) (UniProt O75807).
The target in test [2] is fluorescein-labeled peptide corresponding to repeat 3 (PPP1R15A^420-466), wild type (human) (UniProt O75807). Description: fluorescence polarisation; 5 µL 100 nM fluorescein-labeled peptide probe mixed with 5 µL of increasing concentrations of eIF2 trimer or eIF2α-NTD; 20 mM Tris pH 7.4, 0.1 M NaCl, 1 mM TCEP, 0.01% Triton X-100; one-site binding fit; three experiments. In general terms: In fluorescence polarisation assays a small probe gives low polarisation when free and higher when bound to something large.

In test [3] the target is eIF2 trimer, endogenous (detected by its α subunit), P05198;P20042;P41091. Description: GFP immunoprecipitation (co-IP) and immunoblot, quantified. The conditions noted are these: HEK293T cells; 20% (v/v) of immunoprecipitation fractions analyzed; parent: est. 0.14; read off a plot. (Immunoblotting shows a protein as a band on a membrane.)

Chain of full-length human PPP1R15A-GFP fusion protein, wild type (O75807 whole entry, stated change not applied, the tested form may be a part): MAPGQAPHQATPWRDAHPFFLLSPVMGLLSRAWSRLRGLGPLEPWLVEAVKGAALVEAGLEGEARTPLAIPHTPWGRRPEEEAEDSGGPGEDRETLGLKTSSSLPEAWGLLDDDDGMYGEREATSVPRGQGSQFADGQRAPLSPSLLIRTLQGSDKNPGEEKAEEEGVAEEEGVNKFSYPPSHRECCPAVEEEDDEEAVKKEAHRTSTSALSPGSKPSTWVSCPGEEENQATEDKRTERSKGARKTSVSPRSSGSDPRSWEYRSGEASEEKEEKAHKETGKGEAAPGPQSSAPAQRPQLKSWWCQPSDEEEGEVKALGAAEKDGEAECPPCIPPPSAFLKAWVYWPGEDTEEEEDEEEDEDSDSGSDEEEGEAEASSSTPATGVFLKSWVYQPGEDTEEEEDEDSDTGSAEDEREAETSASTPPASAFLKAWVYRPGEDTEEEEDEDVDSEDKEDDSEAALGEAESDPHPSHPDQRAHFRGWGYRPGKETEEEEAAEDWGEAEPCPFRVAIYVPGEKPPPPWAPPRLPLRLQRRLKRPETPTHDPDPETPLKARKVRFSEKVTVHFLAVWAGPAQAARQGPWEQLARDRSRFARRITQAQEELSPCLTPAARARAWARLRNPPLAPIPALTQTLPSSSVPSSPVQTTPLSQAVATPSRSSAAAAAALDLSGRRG
Chain of fluorescein-labeled peptide corresponding to repeat 3 (PPP1R15A^420-466), wild type (human) (O75807 420-466): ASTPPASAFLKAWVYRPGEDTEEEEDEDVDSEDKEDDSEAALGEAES
Chain of eIF2^P trimer (phosphorylated eIF2) (P05198 whole entry): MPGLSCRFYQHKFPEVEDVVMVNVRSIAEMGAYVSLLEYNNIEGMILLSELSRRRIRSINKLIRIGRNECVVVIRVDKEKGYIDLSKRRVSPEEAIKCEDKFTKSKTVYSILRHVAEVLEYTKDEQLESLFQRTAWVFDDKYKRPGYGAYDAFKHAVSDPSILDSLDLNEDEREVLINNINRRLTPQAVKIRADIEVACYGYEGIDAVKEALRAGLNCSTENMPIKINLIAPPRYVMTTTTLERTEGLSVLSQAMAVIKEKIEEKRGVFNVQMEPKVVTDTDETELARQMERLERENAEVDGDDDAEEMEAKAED
Chain of eIF2^P trimer (phosphorylated eIF2) (P20042 whole entry): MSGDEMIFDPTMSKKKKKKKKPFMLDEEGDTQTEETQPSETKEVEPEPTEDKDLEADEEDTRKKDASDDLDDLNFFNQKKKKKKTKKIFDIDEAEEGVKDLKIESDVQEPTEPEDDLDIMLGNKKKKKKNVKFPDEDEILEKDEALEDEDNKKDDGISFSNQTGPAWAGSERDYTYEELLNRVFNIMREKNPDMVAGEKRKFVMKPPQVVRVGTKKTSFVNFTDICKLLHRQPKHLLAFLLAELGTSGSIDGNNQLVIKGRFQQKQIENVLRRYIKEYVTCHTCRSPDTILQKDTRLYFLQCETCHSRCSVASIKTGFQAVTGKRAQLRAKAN
Chain of eIF2^P trimer (phosphorylated eIF2) (P41091 whole entry): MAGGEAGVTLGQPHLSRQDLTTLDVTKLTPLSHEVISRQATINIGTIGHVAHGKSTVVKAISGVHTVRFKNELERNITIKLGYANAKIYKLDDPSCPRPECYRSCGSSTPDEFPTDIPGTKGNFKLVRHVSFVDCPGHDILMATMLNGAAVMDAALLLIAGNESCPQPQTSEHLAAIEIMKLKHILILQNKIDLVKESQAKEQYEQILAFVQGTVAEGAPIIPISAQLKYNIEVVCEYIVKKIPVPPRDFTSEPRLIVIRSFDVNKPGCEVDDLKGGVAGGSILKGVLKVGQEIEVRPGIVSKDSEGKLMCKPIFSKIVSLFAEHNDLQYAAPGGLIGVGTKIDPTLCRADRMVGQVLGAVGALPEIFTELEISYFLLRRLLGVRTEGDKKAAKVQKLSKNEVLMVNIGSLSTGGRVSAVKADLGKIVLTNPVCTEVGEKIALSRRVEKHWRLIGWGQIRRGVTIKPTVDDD
Chain of eIF2 trimer (recombinant, not phosphorylated) (P05198 whole entry): as the sequence (P05198 whole entry) above
Chain of eIF2 trimer (recombinant, not phosphorylated) (P20042 whole entry): as the sequence (P20042 whole entry) above
Chain of eIF2 trimer (recombinant, not phosphorylated) (P41091 whole entry): as the sequence (P41091 whole entry) above
Chain of extended PPP1R15A^325-636, wild type (bacterially expressed) (human) (O75807 325-636): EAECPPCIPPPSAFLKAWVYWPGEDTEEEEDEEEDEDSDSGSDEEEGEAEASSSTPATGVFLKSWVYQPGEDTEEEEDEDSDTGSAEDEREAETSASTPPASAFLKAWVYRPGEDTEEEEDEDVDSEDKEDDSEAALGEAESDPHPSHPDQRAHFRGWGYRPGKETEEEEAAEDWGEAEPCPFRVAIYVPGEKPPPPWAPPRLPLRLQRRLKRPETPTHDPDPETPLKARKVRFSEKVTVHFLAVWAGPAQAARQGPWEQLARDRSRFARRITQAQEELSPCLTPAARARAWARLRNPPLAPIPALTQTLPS

“eIF2^P trimer (phosphorylated eIF2) (from UniProt P05198 1-315; P20042 1-333; P41091 1-472) (complex)” gave a dephosphorylation of the eIF2^P trimer in vitro (PhosTag SDS-PAGE, kcat/Km) by the extended PPP1R15A^325-636-PP1-G-actin holophosphatase against the core PPP1R15A^533-624-PP1-G-actin holophosphatase (fold (kcat/Km)) in test [1] of 10.
With “eIF2 trimer (recombinant, not phosphorylated) (from UniProt P05198 1-315; P20042 1-333; P41091 1-472) (complex)”, the K (1/2max) in test [2] was 220 nM.
With “full-length human PPP1R15A-GFP fusion protein, wild type (from UniProt O75807) F338A; W342A; F386A; W389A; F428A; W432A; F479A; W482A”, the other: eIF2α/PP1 signal ratio in test [3] is 0.0084.

The values above are taken from article PMC10998612.
